Assay results as given in patent US20200190143A1.
Each block holds one binder with its values, some of them ahead of it. No end group written: not given here.

Key:
[1] = target: melanocortin receptor on melanocytes; test: flow cytometry (FACS), fluorescence immunoassay, on melanocytes
[2] = target: melanocortin receptor on melanocytes; test: binding of alpha-MSH to melanocytes after treatment with 10 µM capsule 2; competitor alpha-MSH
[3] = target: melanocortin receptor on melanocytes; test: interference with alpha-MSH binding to melanocytes as in Example 4-1; peptide density 2 peptides/µm^2; reference set to 10
[4] = target: fibroblast growth factor receptor on fibroblasts; test: binding to fibroblasts as in Example 3-1; peptide density 7 peptides/µm^2
[5] = target: melanocortin receptor on melanocytes; test: interference with alpha-MSH binding to melanocytes as in Example 4-1; peptide density 10.5 peptides/µm^2
[6] = target: fibroblast growth factor receptor on fibroblasts; test: capsule and fibroblasts cultured together at 4° C. for 1 hour
[7] = target: fibroblast growth factor receptor on fibroblasts; test: flow cytometry (FACS), fluorescence immunoassay, on fibroblasts
[8] = target: fibroblast growth factor receptor on fibroblasts; test: binding to fibroblasts as in Example 3-1; peptide density 2 peptides/µm^2; reference set to 10
[9] = target: fibroblast growth factor receptor on fibroblasts; test: binding to fibroblasts as in Example 3-1; peptide density 0.1 peptides/µm^2
[10] = target: fibroblast growth factor receptor on fibroblasts; test: binding to fibroblasts as in Example 3-1; peptide density 10.5 peptides/µm^2
[11] = target: melanocortin receptor on melanocytes; test: interference with alpha-MSH binding to melanocytes as in Example 4-1; peptide density 7 peptides/µm^2
[12] = target: fibroblast growth factor receptor on fibroblasts; test: binding to fibroblasts as in Example 3-1; peptide density 10 peptides/µm^2
[13] = target: melanocortin receptor on melanocytes; test: interference with alpha-MSH binding to melanocytes as in Example 4-1; peptide density 10 peptides/µm^2
[14] = target: fibroblast growth factor receptor on fibroblasts; test: binding to fibroblasts as in Example 3-1; peptide density 0.05 peptides/µm^2
[15] = target: melanocortin receptor on melanocytes; test: interference with alpha-MSH binding to melanocytes as in Example 4-1; peptide density 0.05 peptides/µm^2
[16] = target: integrin receptor (beta-1 family) on keratinocytes; test: flow cytometry (FACS), fluorescence immunoassay, on keratinocytes
[17] = target: melanocortin receptor on melanocytes; test: interference with alpha-MSH binding to melanocytes as in Example 4-1; peptide density 0.1 peptides/µm^2

B1: capsule 2 (microcapsule to which the peptide of SEQ ID NO: 2 was linked) (peptide)
peptide: EGHKIFPSWY
modifications: not fully specified (N-terminus); printed as Glu-Gly-His-Lys-Ile-Phe-Pro-Ser-Trp-Tyr; also: N-terminus amide-linked to microcapsule surface carboxyl (EDAC/NHS)
binding affinity (binding rate) [1]: 70% | percent reduction of the binding of melanocyte and alpha-MSH [2]: 95% | binding interference of melanocyte and alpha-MSH, relative (capsule 2-3 = 10) (relative to capsule 2-3 = 10) [3]: 10

B2: capsule 1-4 (peptide)
peptide: AKST
modifications: not fully specified (N-terminus); printed as Ala-Lys-Ser-Thr; also: N-terminus amide-linked to microcapsule surface carboxyl (EDAC/NHS)
binding affinity to fibroblasts, relative (capsule 1-3 = 10) (relative to capsule 1-3 = 10) [4]: 9.5

B4: capsule 1 (microcapsule to which the peptide of SEQ ID NO: 1 was linked) (peptide)
peptide: AKST
modifications: not fully specified (N-terminus); printed as Ala-Lys-Ser-Thr; also: N-terminus amide-linked to microcapsule surface carboxyl (EDAC/NHS)
fold binding affinity against the microcapsule to which the peptide was not linked [6]: 4 times | binding rate [7]: 75% | binding affinity to fibroblasts, relative (capsule 1-3 = 10) (relative to capsule 1-3 = 10) [8]: 10

B5: capsule 1-2 (peptide)
peptide: AKST
modifications: not fully specified (N-terminus); printed as Ala-Lys-Ser-Thr; also: N-terminus amide-linked to microcapsule surface carboxyl (EDAC/NHS)
binding affinity to fibroblasts, relative (capsule 1-3 = 10) (relative to capsule 1-3 = 10) [9]: 7

B6: capsule 1-6 (peptide)
peptide: AKST
modifications: not fully specified (N-terminus); printed as Ala-Lys-Ser-Thr; also: N-terminus amide-linked to microcapsule surface carboxyl (EDAC/NHS)
binding affinity to fibroblasts, relative (capsule 1-3 = 10) (relative to capsule 1-3 = 10) [10]: 3.5

B8: capsule 1-5 (peptide)
peptide: AKST
modifications: not fully specified (N-terminus); printed as Ala-Lys-Ser-Thr; also: N-terminus amide-linked to microcapsule surface carboxyl (EDAC/NHS)
binding affinity to fibroblasts, relative (capsule 1-3 = 10) (relative to capsule 1-3 = 10) [12]: 7.5

B10: capsule 1-1 (peptide)
peptide: AKST
modifications: not fully specified (N-terminus); printed as Ala-Lys-Ser-Thr; also: N-terminus amide-linked to microcapsule surface carboxyl (EDAC/NHS)
binding affinity to fibroblasts, relative (capsule 1-3 = 10) (relative to capsule 1-3 = 10) [14]: 2

B11: capsule 2-1 (peptide)
peptide: EGHKIFPSWY
modifications: not fully specified (N-terminus); printed as Glu-Gly-His-Lys-Ile-Phe-Pro-Ser-Trp-Tyr; also: N-terminus amide-linked to microcapsule surface carboxyl (EDAC/NHS)
binding interference of melanocyte and alpha-MSH, relative (capsule 2-3 = 10) (relative to capsule 2-3 = 10) [15]: 3

B13: capsule 2-2 (peptide)
peptide: EGHKIFPSWY
modifications: not fully specified (N-terminus); printed as Glu-Gly-His-Lys-Ile-Phe-Pro-Ser-Trp-Tyr; also: N-terminus amide-linked to microcapsule surface carboxyl (EDAC/NHS)
binding interference of melanocyte and alpha-MSH, relative (capsule 2-3 = 10) (relative to capsule 2-3 = 10) [17]: 7.5

The next lines start with the values.

binding interference of melanocyte and alpha-MSH, relative (capsule 2-3 = 10) (relative to capsule 2-3 = 10) [5]: 3
B3: capsule 2-6 (peptide)
peptide: EGHKIFPSWY
modifications: not fully specified (N-terminus); printed as Glu-Gly-His-Lys-Ile-Phe-Pro-Ser-Trp-Tyr; also: N-terminus linked to microcapsule surface carboxyl (EDAC/NHS)

binding interference of melanocyte and alpha-MSH, relative (capsule 2-3 = 10) (relative to capsule 2-3 = 10) [11]: 10
B7: capsule 2-4 (peptide)
peptide: EGHKIFPSWY
modifications: not fully specified (N-terminus); printed as Glu-Gly-His-Lys-Ile-Phe-Pro-Ser-Trp-Tyr; also: N-terminus linked to microcapsule surface carboxyl (EDAC/NHS)

binding interference of melanocyte and alpha-MSH, relative (capsule 2-3 = 10) (relative to capsule 2-3 = 10) [13]: 7
B9: capsule 2-5 (peptide)
peptide: EGHKIFPSWY
modifications: not fully specified (N-terminus); printed as Glu-Gly-His-Lys-Ile-Phe-Pro-Ser-Trp-Tyr; also: N-terminus linked to microcapsule surface carboxyl (EDAC/NHS)

binding rate [16]: 85%
B12: capsule 3 (microcapsule to which the peptide of SEQ ID NO: 3 was linked) (peptide)
peptide: ADGSP
modifications: not fully specified (N-terminus); printed as Ala-Asp-Gly-Ser-Pro; also: N-terminus linked to microcapsule surface carboxyl (EDAC/NHS)
